In patent publication US20180346604A1:

How the values were obtained:
[1] = target: Biotin-GCN4 peptide (yeast); assay: SPR, Biacore 3000, 25 C; biotin-GCN4 peptide captured on streptavidin CM5 chip, Fab-scFv as analyte from 30 nM, 1:1 model
[2] = target: Biotin-GCN4 peptide (yeast); assay: SPR (Biacore 3000), Biotin-GCN4 peptide captured on immobilised streptavidin, Fab-scFv injected, 1:1 binding model

B1: Fab-scFv (anti-GCN4 52SR4 scFv fused to a Fab, generated in-house) (Fab, part only; not given: carrier Fab and its linker, not shown: another chain or arm of the molecule; large carriers; small tags and cut ends)
scFv: DAVVTQESALTSSPGETVTLTCRSSTGAVTTSNYASWVQEKPDHLFTGLIGGTNNRAPGVPARFSGSLIGDKAALTITGAQTEDEAIYFCVLWYSDHWVFGCGTKLTVLGGGGGSGGGGSGGGGSGGGGSDVQLQQSGPGLVAPSQSLSITCTVSGFLLTDYGVNWVRQSPGKCLEWLGVIWGDGITDYNSALKSRLSVTKDNSKSQVFLKMNSLQSGDSARYYCVTGLFDYWGQGTTLTVSSAAAHHHHHHEQKLISEEDL
With B1 the Kd [1] was 0.516 nM, the koff [2] was 0.00027 s⁻¹ and the kon [2] was 510000 M⁻¹ s⁻¹.
